Reference: article doi:10.1101/2021.07.17.452491 (bioRxiv, 2021)

T1: U-STAT1 (purified full-length unphosphorylated STAT1) (UniProt P42224 1-750)
T1 construct: also called Full-length STAT1
T1 sequence (looked up): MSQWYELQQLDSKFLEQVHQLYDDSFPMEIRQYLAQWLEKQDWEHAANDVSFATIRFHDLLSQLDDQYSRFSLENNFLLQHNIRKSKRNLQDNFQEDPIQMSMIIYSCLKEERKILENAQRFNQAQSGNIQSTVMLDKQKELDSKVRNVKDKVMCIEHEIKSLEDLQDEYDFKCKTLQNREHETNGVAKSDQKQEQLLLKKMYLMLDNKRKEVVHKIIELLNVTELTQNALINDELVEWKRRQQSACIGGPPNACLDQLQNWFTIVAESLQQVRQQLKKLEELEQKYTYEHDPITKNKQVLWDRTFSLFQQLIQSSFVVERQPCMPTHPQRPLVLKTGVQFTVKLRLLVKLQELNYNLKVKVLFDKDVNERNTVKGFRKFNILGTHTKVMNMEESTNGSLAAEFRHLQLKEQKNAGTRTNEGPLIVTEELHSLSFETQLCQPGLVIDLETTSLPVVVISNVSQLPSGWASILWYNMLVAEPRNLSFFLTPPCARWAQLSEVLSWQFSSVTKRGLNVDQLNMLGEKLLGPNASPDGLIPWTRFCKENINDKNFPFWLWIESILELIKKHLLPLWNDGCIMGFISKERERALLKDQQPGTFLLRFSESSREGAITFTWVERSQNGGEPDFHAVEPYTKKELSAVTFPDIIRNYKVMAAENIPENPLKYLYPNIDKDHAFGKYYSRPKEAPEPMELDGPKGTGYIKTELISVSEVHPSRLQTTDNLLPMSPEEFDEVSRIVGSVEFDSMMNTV

B1: GB1-018 (natural protein)
chain: MSSKGGSSGGMWSVFIHGHDGSNKGSKTYTSGGGGMWGGGSSSGVKSGVNGGVKSGTGKI

Tests used:
[1] = molecular target: T1, U-STAT1 (purified full-length …); assay: fluorescence polarisation; conditions: both partners purified
[2] = molecular target: T1, U-STAT1 (purified full-length …); assay: ITC; conditions: both partners purified

Binder | IC50 [1] [nM] | Kd [2] [nM] | stoichiometry N [2]
MWSVFIHGHDGSNKGSKTYTS (domain or fragment) [GB1-018^T2] | 930 | 235 | –
B1 | 1260 | 291 | 1.02
MWSVFIHGHDGSNKGSK (domain or fragment) [GB1-018^T3] | 17800 | > 10000 | –
YDKPH (also called pYDKPH; pIFNGR 5-mer) [pIFNGR1 5-mer peptide] | – | 7600 | –
